Among the data in paper PMC7299280 are neutralization IC50 of SARS-CoV-2 pseudovirus (complete neutralization), IC50 neutralization (pseudovirus) and in vitro IC50 neutralization against pseudovirus; pair blocked: S with ACE2 values, retold here.

In assay [1] the target is SARS-CoV-2 spike (S) protein, recombinant (SARS-CoV-2) (UniProt P0DTC2).
Assay [2] shares this target. The source holds these as a separate data set.

Take CC6.33 (antibody): in assay [1], the neutralization IC50 of SARS-CoV-2 pseudovirus (complete neutralization) came to 0.039 µg/mL.

On to CC12.23 (antibody), for which the IC50 neutralization (pseudovirus) in assay [2] came out at 22 µg/mL.

Take CC12.1 (antibody): in assay [2], the in vitro IC50 neutralization against pseudovirus; pair blocked: S with ACE2 is 0.019 µg/mL.
